Test results from patent publication US20240352102A1 (UNITED STATES GOVERNMENT AS REPRESENTED BY THE DEPARTMENT …, published 2024).

Experiments:
Peptide_015 = target: T1, Peptide_015; assay: peptide microarray
T1 peptide: EEPGSETSDAKSTPT

Peptide_016 = target: T2, Peptide_016; assay: peptide microarray
T2 peptide: SETSDAKSTPTAEAE

Peptide_018 = target: T3, Peptide_018; assay: peptide microarray
T3 peptide: TPTAEAEEAGIGDTP

Peptide_019 = target: T4, Peptide_019; assay: peptide microarray
T4 peptide: EAEEAGIGDTPSLED

Peptide_022 = target: T5, Peptide_022; assay: peptide microarray
T5 peptide: LEDEAAGHVTQARMV

Peptide_029 = target: T6, Peptide_029; assay: peptide microarray
T6 peptide: AKGADGKTKIATPRG

Peptide_007 = target: T7, Peptide_007; assay: peptide microarray
T7 peptide: DQGGYTMHQDQEGDT

[1] = target: T8, recombinant human tau incubated with poly(A) RNA (human, UniProt P10636-7 1-412, limits assumed); assay: dot blot, 20 ng tau, 8 replicates, reference heparin incubated tau
T8 construct: Oligomeric complex with RNA; also called tau/RNA complexes; TRCs
T8 sequence (P10636 other isoform, or with tags, fused parts or gaps limits assumed): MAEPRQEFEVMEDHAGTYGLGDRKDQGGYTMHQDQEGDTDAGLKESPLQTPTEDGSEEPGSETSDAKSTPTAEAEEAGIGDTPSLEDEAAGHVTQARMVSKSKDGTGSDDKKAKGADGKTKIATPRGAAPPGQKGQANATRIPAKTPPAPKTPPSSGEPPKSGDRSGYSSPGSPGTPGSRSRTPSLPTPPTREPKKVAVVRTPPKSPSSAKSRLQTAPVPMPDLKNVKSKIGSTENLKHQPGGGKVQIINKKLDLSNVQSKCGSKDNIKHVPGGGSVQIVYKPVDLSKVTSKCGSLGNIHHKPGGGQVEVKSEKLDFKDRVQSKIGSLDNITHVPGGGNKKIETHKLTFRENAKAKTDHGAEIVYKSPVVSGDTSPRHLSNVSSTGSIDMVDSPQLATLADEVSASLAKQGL
Method: To control for other polyanions inducing the TRC35+ tau conformation, recombinant protein was purified from E. coli overexpressing human tau. Twenty ng of purified tau proteins was incubated with poly(A) RNA or Heparin as shown in representative blots above. In total, 8 replicate samples were dot blotted with mAb TRC35 (FIG. 11A) and SP70 total tau mAb (FIG. 11B) as previously described for FIG. 1.

B1: mAb TRC35 (antibody, V domains shown)
VH: QVQLQQPGTELVKPGASVKLSCKASGYTFTSYWLQWVKQRPGQGLEWIGEIDPSDSYTNYNQKFKGKATLTVDTSSSTAYMQLSSLTSEDSAVYYCATLTGSWGQGTTLAVSS
VL: DVLLTQTPLSLPVSLGDQASISCRASQSIVDSNGNTFLEWYLQKSGQSPKVLIYKVSNRFSGVPDRFSGRGSGTDFTLKISRVEAEDLGVYYCFQGSHVPYTFGGGTKLEIK
notes: Mouse hybridoma monoclonal antibody raised in tau knockout mice against tau/poly(A) RNA complexes; IgG1 isotype, kappa light chain; also called TRC35 monoclonal antibody; hybridoma clone #35
What does the source list for B1?
binding result (Peptide_015): no binding (tested: 1 ug/ml); binding result (Peptide_016): no binding (tested: 1 ug/ml); binding result (Peptide_018): no binding (tested: 1 ug/ml); binding result (Peptide_019): no binding (tested: 1 ug/ml); binding result (Peptide_022): no binding (tested: 1 ug/ml); binding result (Peptide_029): no binding (tested: 1 ug/ml); binding result (Peptide_007): no binding (tested: 1 ug/ml); fold TRC35 signal normalized to SP70, relative to heparin [1]: ~2 fold
